Reference: patent CN105646713A (UNIV CHINA PHARMA, dated 2016)

Molecular target: T1, CD24多肽 (human, UniProt P25063 27-59)
T1 construct: domain: CD24核心区; also called CD24核心区多肽; 抗原肽CD24
T1 peptide (looked up): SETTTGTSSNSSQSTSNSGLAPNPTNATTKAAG
Assay: Competitive ELISA by the Friguet method: 10 pM antibody preincubated overnight with 0-6.25e-10 M antigen, then free antibody captured on coated CD24 peptide; KD from linear regression

Kd: 0.84 nM
B1: 单克隆抗体E4 (antibody, V domains shown)
VH: QVKLEESGGGLVQPGGSLKISCAASGPDFSRYWMSWVRQAPGKGLEWIGEINPDYSTINYTPSLRDKFIISRDNAKNTLYLQMSKVRYEDTSLYYCVRQGDYWGQGTSVTVSS
VL: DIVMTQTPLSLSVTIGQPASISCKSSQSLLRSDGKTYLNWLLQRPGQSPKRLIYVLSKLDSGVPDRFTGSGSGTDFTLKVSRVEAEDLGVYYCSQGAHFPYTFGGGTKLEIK
notes: also called E4杂交瘤细胞株抗体
